We go through two molecules from patent US20110318339A1.

Assay [1] addresses rHuman IGF-1 sR, (IGF-1 sR), CF (Cat# 391-GR, R&D Systems) (human) (UniProt P08069). The experiment in a line: Multispot ECL; Fab 15 nM; blank 261.
Assay [2] concerns the target rHuman EGF R/Fc Chimera, CF (Cat# 344-ER, R&D Systems) (human) (UniProt P00533). Description: Multispot ECL; Fab 15 nM; blank 261.
The target in assay [3] is rHuman ErbB2/Fc Chimera, CF (Cat# 1129-ER, R&D Systems) (human) (UniProt P04626). Description: Multispot ECL; Fab 15 nM; blank 261.
The target in assay [4] is rHuman HGF R/c-MET/Fc Chimera, CF (Cat# 358-MT/CF, R&D Systems) (human) (UniProt P08581). Description: Multispot ECL; Fab 15 nM; blank 261.
The target in assay [5] is rHuman IGF-1 sR, (IGF-1 sR), CF (Cat# 391-GR, R&D Systems) (human) (UniProt P08069). The experiment in a line: Multispot ECL; Fab 7.5 nM; blank 217.
The target of assay [6] is rHuman EGF R/Fc Chimera, CF (Cat# 344-ER, R&D Systems) (human) (UniProt P00533). The experiment in a line: Multispot ECL; Fab 7.5 nM; blank 217.
For assay [7], the target named is rHuman ErbB2/Fc Chimera, CF (Cat# 1129-ER, R&D Systems) (human) (UniProt P04626). The experiment in a line: Multispot ECL; Fab 7.5 nM; blank 217.
For assay [8], the target named is rHuman HGF R/c-MET/Fc Chimera, CF (Cat# 358-MT/CF, R&D Systems) (human) (UniProt P08581). Description: Multispot ECL; Fab 7.5 nM; blank 217.
For assay [9], the target named is rHuman IGF-1 sR, (IGF-1 sR), CF (Cat# 391-GR, R&D Systems) (human) (UniProt P08069). Description: Multispot ECL; Fab 120 nM; blank 363.
For assay [10], the target named is rHuman EGF R/Fc Chimera, CF (Cat# 344-ER, R&D Systems) (human) (UniProt P00533). The experiment in a line: Multispot ECL; Fab 120 nM; blank 363.
The target in assay [11] is rHuman ErbB2/Fc Chimera, CF (Cat# 1129-ER, R&D Systems) (human) (UniProt P04626). Description: Multispot ECL; Fab 120 nM; blank 363.
Assay [12] concerns the target rHuman HGF R/c-MET/Fc Chimera, CF (Cat# 358-MT/CF, R&D Systems) (human) (UniProt P08581). The experiment in a line: Multispot ECL; Fab 120 nM; blank 363.
The target of assay [13] is rHuman IGF-1 sR, (IGF-1 sR), CF (Cat# 391-GR, R&D Systems) (human) (UniProt P08069). The experiment in a line: Multispot ECL; Fab 60 nM; blank 237.
Assay [14] has as its target rHuman EGF R/Fc Chimera, CF (Cat# 344-ER, R&D Systems) (human) (UniProt P00533). Description: Multispot ECL; Fab 60 nM; blank 237.
Assay [15] addresses rHuman ErbB2/Fc Chimera, CF (Cat# 1129-ER, R&D Systems) (human) (UniProt P04626). The experiment in a line: Multispot ECL; Fab 60 nM; blank 237.
Assay [16] addresses rHuman HGF R/c-MET/Fc Chimera, CF (Cat# 358-MT/CF, R&D Systems) (human) (UniProt P08581). Description: Multispot ECL; Fab 60 nM; blank 237.
In assay [17] the target is rHuman IGF-1 sR, (IGF-1 sR), CF (Cat# 391-GR, R&D Systems) (human) (UniProt P08069). Description: Multispot ECL; Fab 240 nM; blank 316.
Assay [18] has as its target rHuman EGF R/Fc Chimera, CF (Cat# 344-ER, R&D Systems) (human) (UniProt P00533). Description: Multispot ECL; Fab 240 nM; blank 316.
Assay [19] addresses rHuman ErbB2/Fc Chimera, CF (Cat# 1129-ER, R&D Systems) (human) (UniProt P04626). Description: Multispot ECL; Fab 240 nM; blank 316.
Assay [20] addresses rHuman HGF R/c-MET/Fc Chimera, CF (Cat# 358-MT/CF, R&D Systems) (human) (UniProt P08581). The experiment in a line: Multispot ECL; Fab 240 nM; blank 316.
In assay [21] the target is rHuman IGF-1 sR, (IGF-1 sR), CF (Cat# 391-GR, R&D Systems) (human) (UniProt P08069). Description: Multispot ECL; Fab 3.8 nM; blank 198.
The target of assay [22] is rHuman EGF R/Fc Chimera, CF (Cat# 344-ER, R&D Systems) (human) (UniProt P00533). Description: Multispot ECL; Fab 3.8 nM; blank 198.
Assay [23] concerns the target rHuman ErbB2/Fc Chimera, CF (Cat# 1129-ER, R&D Systems) (human) (UniProt P04626). The experiment in a line: Multispot ECL; Fab 3.8 nM; blank 198.
Assay [24] deals with rHuman HGF R/c-MET/Fc Chimera, CF (Cat# 358-MT/CF, R&D Systems) (human) (UniProt P08581). The experiment in a line: Multispot ECL; Fab 3.8 nM; blank 198.
The target in assay [25] is rHuman IGF-1 sR, (IGF-1 sR), CF (Cat# 391-GR, R&D Systems) (human) (UniProt P08069). Description: Multispot ECL; Fab 480 nM; blank 362.
For assay [26], the target named is rHuman EGF R/Fc Chimera, CF (Cat# 344-ER, R&D Systems) (human) (UniProt P00533). The experiment in a line: Multispot ECL; Fab 480 nM; blank 362.
Assay [27] has as its target rHuman ErbB2/Fc Chimera, CF (Cat# 1129-ER, R&D Systems) (human) (UniProt P04626). Description: Multispot ECL; Fab 480 nM; blank 362.
The target in assay [28] is rHuman HGF R/c-MET/Fc Chimera, CF (Cat# 358-MT/CF, R&D Systems) (human) (UniProt P08581). Description: Multispot ECL; Fab 480 nM; blank 362.
Assay [29] deals with rHuman IGF-1 sR, (IGF-1 sR), CF (Cat# 391-GR, R&D Systems) (human) (UniProt P08069). Description: Multispot ECL; Fab 30 nM; blank 213.
For assay [30], the target named is rHuman EGF R/Fc Chimera, CF (Cat# 344-ER, R&D Systems) (human) (UniProt P00533). Description: Multispot ECL; Fab 30 nM; blank 213.
The target of assay [31] is rHuman ErbB2/Fc Chimera, CF (Cat# 1129-ER, R&D Systems) (human) (UniProt P04626). The experiment in a line: Multispot ECL; Fab 30 nM; blank 213.
For assay [32], the target named is rHuman HGF R/c-MET/Fc Chimera, CF (Cat# 358-MT/CF, R&D Systems) (human) (UniProt P08581). The experiment in a line: Multispot ECL; Fab 30 nM; blank 213.
Assay [33] concerns the target rHuman IGF-1 sR, (IGF-1 sR), CF (Cat# 391-GR, R&D Systems) (human) (UniProt P08069). The experiment in a line: Multispot ECL; Fab 6 nM; blank 191.
Assay [34] concerns the target rHuman EGF R/Fc Chimera, CF (Cat# 344-ER, R&D Systems) (human) (UniProt P00533). The experiment in a line: Multispot ECL; Fab 6 nM; blank 191.
The target of assay [35] is rHuman ErbB2/Fc Chimera, CF (Cat# 1129-ER, R&D Systems) (human) (UniProt P04626). The experiment in a line: Multispot ECL; Fab 6 nM; blank 191.
In assay [36] the target is rHuman HGF R/c-MET/Fc Chimera, CF (Cat# 358-MT/CF, R&D Systems) (human) (UniProt P08581). The experiment in a line: Multispot ECL; Fab 6 nM; blank 191.
The target in assay [37] is rHuman IGF-1 sR, (IGF-1 sR), CF (Cat# 391-GR, R&D Systems) (human) (UniProt P08069). The experiment in a line: Multispot ECL; Fab 154 nM; blank 447.
Assay [38] concerns the target rHuman EGF R/Fc Chimera, CF (Cat# 344-ER, R&D Systems) (human) (UniProt P00533). Description: Multispot ECL; Fab 154 nM; blank 447.
For assay [39], the target named is rHuman ErbB2/Fc Chimera, CF (Cat# 1129-ER, R&D Systems) (human) (UniProt P04626). The experiment in a line: Multispot ECL; Fab 154 nM; blank 447.
Assay [40] has as its target rHuman HGF R/c-MET/Fc Chimera, CF (Cat# 358-MT/CF, R&D Systems) (human) (UniProt P08581). The experiment in a line: Multispot ECL; Fab 154 nM; blank 447.
For assay [41], the target named is rHuman IGF-1 sR, (IGF-1 sR), CF (Cat# 391-GR, R&D Systems) (human) (UniProt P08069). The experiment in a line: Multispot ECL; Fab 51 nM; blank 335.
In assay [42] the target is rHuman EGF R/Fc Chimera, CF (Cat# 344-ER, R&D Systems) (human) (UniProt P00533). The experiment in a line: Multispot ECL; Fab 51 nM; blank 335.
Assay [43] has as its target rHuman ErbB2/Fc Chimera, CF (Cat# 1129-ER, R&D Systems) (human) (UniProt P04626). Description: Multispot ECL; Fab 51 nM; blank 335.
Assay [44] concerns the target rHuman HGF R/c-MET/Fc Chimera, CF (Cat# 358-MT/CF, R&D Systems) (human) (UniProt P08581). Description: Multispot ECL; Fab 51 nM; blank 335.
The target in assay [45] is rHuman IGF-1 sR, (IGF-1 sR), CF (Cat# 391-GR, R&D Systems) (human) (UniProt P08069). The experiment in a line: Multispot ECL; Fab 17 nM; blank 143.
Assay [46] addresses rHuman EGF R/Fc Chimera, CF (Cat# 344-ER, R&D Systems) (human) (UniProt P00533). The experiment in a line: Multispot ECL; Fab 17 nM; blank 143.
Assay [47] concerns the target rHuman ErbB2/Fc Chimera, CF (Cat# 1129-ER, R&D Systems) (human) (UniProt P04626). Description: Multispot ECL; Fab 17 nM; blank 143.
The target in assay [48] is rHuman HGF R/c-MET/Fc Chimera, CF (Cat# 358-MT/CF, R&D Systems) (human) (UniProt P08581). Description: Multispot ECL; Fab 17 nM; blank 143.

B1: Fab VH6-1_IGHD3-3*01_IGHJ4*01 & V4-3_IGLJ4*01 (Fab, V domains shown)
VH: QVQLQQSGPGLVKPSQTLSLTCAISGDSVSSNSAAWNWIRQSPSRGLEWLGRTYYRSKWYNDYAVSVKSRITINPDTSKNQFSLQLNSVTPEDTAVYYCAREYYDFWSGYYTDYFDYWGQGTLVTVSS
VL: QPVLTQPTSLSASPGASARLTCTLRSGINLGSYRIFWYQQKPESPPRYLLSYYSDSSKHQGSGVPSRFSGSKDASSNAGILVISGLQSEDEADYYCMIWHSSASFVFGGGTQLIIL
With B1, the ECL signal in [1] stood at 705; in [2], 584; in assay [3], 713; in assay [4], 694; in assay [5] it was 642; in assay [6], 582. The ECL signal in [7] stood at 695; in assay [8] it was 558; in assay [9] it was 813; in assay [10], 658; in assay [11], 822; in assay [12], 785. Further, the ECL signal in assay [13] was 654; in assay [14], 679; in assay [15], 777; in [16] it was 623; in assay [17], 625; in assay [18], 690. Further, the ECL signal is 833 in assay [19]; 834 in assay [20]; 463 in assay [21]; 511 in assay [22]; 714 in assay [23]; 519 in assay [24]. The ECL signal in assay [25] worked out at 741; in [26] it was 877; in [27], 965; in assay [28], 951; in [29] it was 697; in assay [30] it was 585. Moreover, the ECL signal was 726 in [31] and 640 in assay [32].

B2: Fab VH5-51_IGHD5-18*01>3_IGHJ4*01 & V3-4_IGLJ1*01 (Fab, V domains shown)
VH: EVQLVQSGAEVKKPGESLKISCKGSGYSFTSYWIGWVRQMPGKGLEWMGIIYPGDSDTRYSPSFQGQVTISADKSISTAYLQWSSLKASDTAMYYCARRGYSYGYDYFDYWGQGTLVTVSS
VL: QTVVTQEPSFSVSPGGTVTLTCGLSSGSVSTSYYPSWYQQTPGQAPRTLIYSTNTRSSGVPDRFSGSILGNKAALTITGAQADDESDYYCVLYMGSGISYVFGTGTKVTVL
As to B2, the ECL signal in assay [33] was 854; in [34] it was 742; in assay [35], 873; in [36] it was 831; in assay [37] it was 1400; in assay [38], 1400. Also, the ECL signal in assay [39] was determined as 1590; in assay [40], 1520; in assay [41] it was 1050; in assay [42], 816; in assay [43], 1250; in assay [44], 1040. For the same molecule, the ECL signal in assay [45] worked out at 872; in assay [46] it was 805; in assay [47], 1030; in assay [48], 914.
